Test results from patent US11660340B2, “Combination therapy using T cell redirection antigen binding molecule against cell having immunosuppressing function” (CHUGAI SEIYAKU KABUSHIKI KAISHA, priority 2015, dated 2023).

Experiments:
CT26.WT cells = assay: Combined use of mCTLA4/mCD3 and gemcitabine, CT26.WT cell-transplanted model; type: in vivo; conditions: final measurement point; mCTLA4/mCD3 25 μg/mouse day 9, gemcitabine 120 mg/kg day 8, tail vein; n=5; FIG. 19
Protocol: BALB/cA mice and C57BL/6N mice were purchased from Charles River Laboratories Japan, Inc. The CT26.WT cells or the CT26/hGPC3 cells were transplanted subcutaneously to BALB/cA mice, and the LL/2 (LLC1) cells or the LLC1/hGPC3 cells were transplanted subcutaneously to C57BL/6N mice. Models were established when the average volume of the transplanted tumors reached approximately 100 mm^3 to 200 mm^3.
The volume of the transplanted tumor was calculated using the following equation: Tumor volume (mm^3)=major axis (mm)×minor axis (mm)×minor axis (mm)/2
As the pharmaceutical agents to be administered for the combined use test, the anti-mouse CTLA4/anti-mouse CD3 bispecific monoclonal antibody (mCTLA4/mCD3) was prepared at 0.125 mg/mL in PBS (−), and a pyrimidine analog (antimetabolite), gemcitabine (Gemzar: Eli Lilly Japan) was prepared at 12 mg/mL in physiological saline solution (Otsuka Pharmaceutical).
To evaluate the effects of combined use of the anti-mouse CTLA4/anti-mouse CD3 bispecific monoclonal antibody (mCTLA4/mCD3) and gemcitabine, the CT26.WT cell-transplanted model was used and given through the tail vein gemcitabine at 120 mg/kg eight days after transplantation and […] at 25 μg/mouse nine days after transplantation.
Antitumor effects were evaluated from the tumor volumes calculated using the equation shown in (2) of Example 1. […]

[1] = system: mouse CTLA4-expressing cells (CHO/mouse CTLA4 cells); assay: ADCC activity, chromium-release assay with mFcgR4-NK92 effector cells; type: cell-based; conditions: antibody 0, 0.04, 0.4, 4, 40 μg/ml, FIG. 5
Text: Whether anti-mouse CTLA4 antibody hUH02hUL01-mFa55 purified and prepared by the method of Reference Example 2-1 exerts ADCC activity on mouse CTLA4-expressing cells (mouse CTLA4-expressing cells were produced by a method known to those skilled in the art by introducing the full length mouse CTLA4 gene into CHO cells) was examined according to the method of Reference Example 11.
Regarding anti-mouse CTLA4 antibodies, antibody concentration-dependent ADCC activities of test antibodies were measured, using the mouse FcgR4-expressing human NK cell line NK-92 (hereinafter referred to as mFcgR4-NK92) as effector cells by following the method described below.
After washing mFcgR4-NK92 with RPMI-1640 (nacalai tesque) containing 10% FBS (hereinafter referred to as 10% FBS/RPMI), the cells were suspended in 10% FBS/RPMI at a cell density of 4×10^5 cells/ml. […]
The ADCC activities were evaluated from the specific chromium release rate according to the chromium release method. […] The radioactivity of 100 μl of culture supernatant in each well of the plate was measured using a gamma counter. The specific chromium release rate was determined based on the following equation. […] The examinations were performed in duplicate and the mean value for the specific chromium release rate (%) of the test antibody was calculated.

mFcgRIII = molecular target: T1, mFcgRIII (Mus musculus, UniProt P08508); assay: Biacore T200 binding of anti-mouse CTLA4 antibody to mouse FcgR; conditions: 1.1 binding RI = 0, 25° C., pH7.4
T1 sequence (P08508 31-261): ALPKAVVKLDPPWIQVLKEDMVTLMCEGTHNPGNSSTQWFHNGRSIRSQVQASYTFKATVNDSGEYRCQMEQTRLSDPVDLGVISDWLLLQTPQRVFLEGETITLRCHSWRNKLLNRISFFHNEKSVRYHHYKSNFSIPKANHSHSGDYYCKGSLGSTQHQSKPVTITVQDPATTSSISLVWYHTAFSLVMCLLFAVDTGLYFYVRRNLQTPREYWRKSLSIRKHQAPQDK
Protocol: (§1) Anti-mouse CTLA4 antibody hUH02hUL01-mFa55 and control antibody hUH02hUL01-mIgG2a (the heavy chain variable region UH02 is SEQ ID NO: 28, the light chain variable region UL01 is SEQ ID NO: 29, the heavy chain constant region mIgG2a is SEQ ID NO: 32, and the light chain constant region mk1 is SEQ ID NO: 31) purified and prepared by the method of Reference Example 2-1 were analyzed for their antigen-antibody reactions with various mouse FcgRs (mFcgRI, II, III, and IV) using Biacore™ T200 (GE Healthcare). The running buffer used was 20 mmol/L ACES, 150 mmol/L NaCl, 0.05% (w/v) Tween®20 at pH7.4, and measurements were taken at 25° C. Protein A/G was immobilized onto a Sensor Chip CM7 by amine coupling. hUH02hUL01-mFa55 was captured onto the sensorchip, and then FcgR was allowed to interact as an analyte for 120 seconds, and change in the bound amount was observed. The running buffer was used for dilution of hUH02hUL01-mFa55. The measurement results were analyzed by curve fitting using the Biacore™ T200 Evaluation Software (GE Healthcare) to calculate the association rate constants ka (l/Ms) and the dissociation rate constants kd (l/s). From those values, the dissociation constants KD (M) were determined.

mFcgRIV = molecular target: T2, mFcgRIV (Mus musculus, UniProt A0A0B4J1G0); assay: as above; conditions: 1:1 binding RI = 0, 25° C., pH7.4
T2 sequence (A0A0B4J1G0 21-249): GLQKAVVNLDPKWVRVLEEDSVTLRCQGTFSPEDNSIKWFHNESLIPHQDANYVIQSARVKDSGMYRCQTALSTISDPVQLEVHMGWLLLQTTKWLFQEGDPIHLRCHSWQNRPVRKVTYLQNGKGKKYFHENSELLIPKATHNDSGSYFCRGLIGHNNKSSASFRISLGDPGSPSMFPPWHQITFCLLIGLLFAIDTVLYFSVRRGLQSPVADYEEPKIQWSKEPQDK
Protocol: as §1

mFcgRII = molecular target: T3, mFcgRII (Mus musculus, UniProt P08101); assay: as above; conditions: 1:1 binding RI = 0, 25° C., pH7.4
T3 sequence (P08101 30-330): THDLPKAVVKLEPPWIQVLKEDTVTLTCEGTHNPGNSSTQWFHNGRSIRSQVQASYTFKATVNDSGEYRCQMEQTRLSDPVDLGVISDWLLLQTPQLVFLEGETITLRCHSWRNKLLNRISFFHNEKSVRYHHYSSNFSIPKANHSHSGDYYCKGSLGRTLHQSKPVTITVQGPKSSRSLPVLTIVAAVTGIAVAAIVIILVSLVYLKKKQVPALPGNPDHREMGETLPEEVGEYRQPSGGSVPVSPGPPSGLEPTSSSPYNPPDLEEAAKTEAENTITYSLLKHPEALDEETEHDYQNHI
Protocol: as §1

mFcgRI = molecular target: T4, mFcgRI (Mus musculus, UniProt P26151); assay: as above; conditions: 1:1 binding RI = 0, 25° C., pH7.4
T4 sequence (P26151 25-404): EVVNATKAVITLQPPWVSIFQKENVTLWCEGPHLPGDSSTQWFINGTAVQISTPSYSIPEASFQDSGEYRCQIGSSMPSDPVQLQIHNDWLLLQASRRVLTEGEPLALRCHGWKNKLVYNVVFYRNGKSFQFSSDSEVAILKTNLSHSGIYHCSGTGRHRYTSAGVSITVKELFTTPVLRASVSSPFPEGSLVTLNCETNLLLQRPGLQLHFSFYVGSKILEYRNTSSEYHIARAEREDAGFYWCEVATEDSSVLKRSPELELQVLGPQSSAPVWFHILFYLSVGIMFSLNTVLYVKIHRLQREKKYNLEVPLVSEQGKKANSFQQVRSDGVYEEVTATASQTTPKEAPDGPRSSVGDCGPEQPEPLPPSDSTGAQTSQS
Protocol: as §1

Nc1ccn([C@@H]2O[C@H](CO)[C@@H](O)C2(F)F)c(=O)n1 [gemcitabine]
tumor volume vs. the PBS-administered group (Tukey multiple comparison test) (CT26.WT cells): significant differences (p<0.05)

B1: hUH02hUL01-mFa55: anti-mouse CTLA4 antibody, mouse IgG2a/kappa, constant region mFa55 modified to enhance binding to mouse FcγR (ADCC-enhanced) (antibody)
heavy: QVQLQESGPGLVKPSETLSLTCTVSGYSISSGYGWNWIRQPPGKGLEWIGFIYYEGSTYYNPSIKSRISITRDTSKNQFFLQVNSVTTEDTATYYCARQTGYFDYWGQGTLVTVSSAKTTAPSVYPLAPVCGDTTGSSVTLGCLVKGYFPEPVTLTWNSGSLSSGVHTFPAVLQSDLYTLSSSVTVTSSTWPSQSITCNVAHPASSTKVDKKIEPRGPTIKPCPPCKCPAPNLLGGPDVFIFPPKIKDVLMISLSPIVTCVVVDVSEDDPDVQISWFVNNVEVHTAQTQTHREDYNSTLRVVSALPIQHQDWMSGKEFKCKVNNKDLPAPIERTISKPKGSVRAPQVYVLPPPEEEMTKKQVTLTCMVTDFMPEDIYVEWTNNGKTELNYKNTEPVLDSDGSYFMYSKLRVEKKNWVERNSYSCSVVHEGLHNHHTTKSFSRTPGK
light: DIVMTQSPDSLAVSLGERATINCKSSQSLFNSNAKTNYLNWYQQKPGQPPKLLIYYASTRHTGVPDRFSGSGSGTDFTLTISSLQAEDVAVYYCQQWYDYPYTFGAGTKVEIKRADAAPTVSIFPPSSEQLTSGGASVVCFLNNFYPKDINVKWKIDGSERQNGVLNSWTDQDSKDSTYSMSSTLTLTKDEYERHNSYTCEATHKTSTSPIVKSFNRNEC
ADCC activity (specific chromium release rate) [1]: ADCC activity in an antibody concentration-dependent manner
ka (mFcgRIII): 2.4e+06 M⁻¹ s⁻¹
kd (mFcgRIII): 0.62 s⁻¹
ka (mFcgRIV): 1.5e+06 M⁻¹ s⁻¹
kd (mFcgRIV): 0.0028 s⁻¹
ka (mFcgRII): 2.1e+06 M⁻¹ s⁻¹
kd (mFcgRII): 0.76 s⁻¹
ka (mFcgRI): 1.2e+06 M⁻¹ s⁻¹
kd (mFcgRI): 0.0031 s⁻¹
